The assay addresses SBP-Asi2 (S. cerevisiae) (UniProt P53895).
Chain of UniProt P53895 (P53895 whole entry): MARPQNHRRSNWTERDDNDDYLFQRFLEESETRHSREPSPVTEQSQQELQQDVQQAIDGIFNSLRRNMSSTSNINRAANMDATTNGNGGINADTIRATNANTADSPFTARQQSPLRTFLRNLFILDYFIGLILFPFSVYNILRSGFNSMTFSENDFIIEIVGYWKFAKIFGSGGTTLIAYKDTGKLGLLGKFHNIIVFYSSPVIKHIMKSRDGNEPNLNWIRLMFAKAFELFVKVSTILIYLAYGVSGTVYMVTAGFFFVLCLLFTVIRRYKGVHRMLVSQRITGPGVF

Chain of TM68-MBP (P10614 1-68): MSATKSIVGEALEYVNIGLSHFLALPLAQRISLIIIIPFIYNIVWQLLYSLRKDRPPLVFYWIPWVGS

“TM68-MBP (from UniProt P10614 1-68) (domain or fragment)” displayed a ubiquitination of TM68-MBP in proteoliposomes with only the Asi1/Asi3 subcomplex (no Asi2), against proteoliposomes with the entire Asi complex; Ubi Mix, 60 min of 28%.

The record behind these values is article PMC6941229.
